Experimental data: the supplement of paper PMC9170038

System: K4 kissing-loop RNA reporter
Assay: apparent KD of K4 kissing-loop reporter; higher = weaker reporter binding
Details: Eterna round: R107
Experimental: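 RNA-MaP round R107: designed RNA switches with theophylline, tryptophan, arginine or FMN aptamers are transcribed on-chip within common flanks. They are titrated with a labelled K4 kissing-loop RNA reporter in RNA-MaP buffer (100 mM Tris pH 7.5, 80 mM KCl, 4 mM MgCl2), without ligand or with the indicated ligand. Median apparent KD per design.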

[1] = input ligand: theophylline 20 uM
[2] = input ligand: tryptophan 2.4 mM
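Note: bound reporter read as fluorescence of individual clusters on recovered sequencing chips by microscopy, with normalized cluster intensities fitted with a binding model.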

Row | Sequence | apparent KD of K4 kissing-loop reporter (input ligand: FMN 200 uM) [nM] | apparent KD of K4 kissing-loop reporter (input ligand: arginine 13.2 mM) [nM] | apparent KD of K4 kissing-loop reporter (input ligand: none) [nM] | apparent KD of K4 kissing-loop reporter [1] [nM] | apparent KD of K4 kissing-loop reporter [2] [nM]
1 | CAUACGCAUGGAGGAUAUGGGAUUACUCAUAUUACCCUGUAACAGGUAUCUCAGUGAUGUUGAGACUCAGAAGGCCAUGUGUAUG [Ex FMN B 23] | 615 | 289 | 348 | 370 | 344
2 | CAUAGACAAGUGAUGUUUGUCAUAACCGAAGGAGCGUCUUUAAAGACAGGUAGGUCGCGGAUUAGUUAAGUUAUGAUUCUUUAUG [#19 K4 Arginine A Same State] | 602 | 492 | 704 | 659 | 453
3 | CAUAGGAAACUAUGUUUCUCUCUUACUGAAGGAGCGCGUGAAAACGCAGGUAGGUCGCAGAAUUUAAAAGAGAGUGAUGUUCUCA [Ex Arginine A K4 11] | 431 | 374 | 598 | 572 | 446
4 | CAUAUCAGAUAAGGAUAUAUGGCUCCUCGAGUCCAGUGAUGUUGGGCAACGUUUCAGUGGUGGAUUAUAGAAGGUAUUCACAGAC [theeternabot_sameState_KL_FMN_B_9] | 297 | 250 | 276 | 272 | 258
5 | CAUGGAGUGAUGCUCCAUGAUCGGGCUUGGCAGGAUAUGGGAUCUUCCAGAAGGGCCGAUCCCAGCGAGUGAUGUUCGCUGGUCU [Exclusion FMN A GF 27] | 119 | 107 | 113 | 116 | 108
6 | CCAUCGCUAUUCGAUACCAGUCAUCACAUCUUUGGUGUGAUAAAGGAGUGAUGUUCCCAAGACCCUUGGCAGCGAAUAGUGAUGG [Theophylline B K4 11] | 293 | 222 | 270 | 172 | 250
7 | CCAUCGCUAUUCGAUACCAGUCUUUUUUAUUUAUAAAAUCUGCAAAGGAGUGAUGUUCCAGACCCUUGGCAGCGAAUAGUGAUGG [Theophylline B K4 3] | 401 | 441 | 464 | 570 | 459
8 | CCAUUCUUUUACGAUACCAGUUUAAUAUAUUUAUUCAUAACCCUUGCCGAGUGAUGUUCGGACCCUUGGCAGCGUUUGCGAGAGG [lliltkmullin] | 303 | 308 | 392 | 404 | 239
9 | CCCGGGUCGUCAGGAUAUGAGUGCAGUGAUGUUGCACGGGUCUUUGCAGGCCCUGGUGAGGCGUACUCAGAAGGGACGCCAGGUC [Atazazaed] | 250 | 124 | 145 | 130 | 133
10 | CCCGUGGGUUCGAGAGGGCUUGUGGGAAGUAAGGAUAUUUAGGGAGAAAGAAGGUACUAUAGAAUAUAGUGAUGUUAUAUAUGGG [#07 K4 FMN A Same State] | 402 | 435 | 454 | 347 | 203
11 | CCCUCACGAGUGAUGUUCGUAGGGUACAGUCAGGAUAUCAUGCGGUUGAGAAGGGACAGAGAGGGCGGCGGCGGGUUGCUCAUCG [Rabele] | 150 | 125 | 153 | 166 | 124
12 | CCGAAGAACCAGUGAUGUUGGUUGACUAGACAGGAUAUGAGCAACAUCAGAAGGGUCUGGCUUCGGGAGUGGGCCGCGCUGACCU [Artilati] | 324 | 193 | 240 | 1210 | 395
13 | CCGAUGGGUACAGGAUAUGCCAGUGAUGUUGGUUUAGAUGGACCCAUAAGGAGACACCAGACGGAGGCAGAAGGGUAGCAAGGGA [Isonanti] | 127 | 110 | 101 | 118 | 120
14 | CCGGGCGGCUGAAGGAGCGGGCGGGCCCGAGUGAUGUUCGGGUGGGCCGUGAGGUCCGGUGCCCAGGUAGGUCGCGGUUCCGCCC [#2 Same State - Arginine B Attempt #10 (HarryS)] | 200 | 169 | 262 | 215 | 164
15 | CCGUAGCGAUCGGCCGCCACUCAAGAUCGCCAACUAUCACACGGUUCUCCCGAGUGAUGUUCUAGGAGGACCGGGAUUGUUGCUC [theeternabot_exclusion_KL_Trp_B_13] | 421 | 322 | 378 | 374 | 388
16 | CCUAUCUCAUACGAUACCAGUCUACGAUAUUUUAUCGUUGCCAACACCGAGUGAUGUUCGGACCCUUGGCAGCGUAUGGGAUAGG [#03 K4 Theophylline B Exclusion] | 159 | 129 | 143 | 138 | 136
17 | CCUAUCUCAUACGAUACCAGUCUAUUGUUACGAGUGAUGUUCGAAUAUUUGCCAUUCAAUGACCCUUGGCAGCGUAUGGGAUAGG [Ex Theophylline B K4 10] | 502 | 519 | 525 | 548 | 486
18 | CCUCACGUAGGACUAGUGAUGUUAGACUACCGAGGACCGGUACGGCCGCCACUCGUCGUACAAGAUAACCUUCCGCCAGUAUACG | 110 | 85.1 | 98.9 | 88.4 | 140
19 | CGAGUGAUGUUCGUUUUUUACUCUGUUUGACAGGAUAUGCGGAAACGCAGAAGGGUCACCUUUGAGUUAAACGGAGUUAUUUUUU [Ex FMN A 20] | 419 | 296 | 366 | 306 | 320
20 | CGAUACGGAAAUACGUGUCUCUAUUCAGAAGGAGCGUGGUAGUACACAGGUAGGUCGCUGAAAUUUAAACUAGUGAUGUUAGACU [JR_SSArginiA_Sub004] | 1330 | 742 | 1190 | 884 | 905
21 | CGCAAGCAGCUAGUGAUGUUGGCCGCCUUGCGAGGACCGGUACGGCCGCCACUCGGAGGCGGCUACUGAUAAACCGUCUAACGGA [KL-XTryp-A10] | 87.5 | 67.2 | 84.3 | 70.6 | 224

Row | Sequence | apparent KD of K4 kissing-loop reporter (input ligand: FMN 200 uM) [nM] | apparent KD of K4 kissing-loop reporter (input ligand: arginine 13.2 mM) [nM] | apparent KD of K4 kissing-loop reporter (input ligand: none) [nM] | apparent KD of K4 kissing-loop reporter [1] [nM] | apparent KD of K4 kissing-loop reporter [2] [nM]
22 | CGCAGUGAUGUUGCGAGUAGCUACAGGGAAGGAGCGUGCUAGAGCACAGGUAGGUCGCCCAGUGGCAGUGAUGUUGCCAAAGGGU [Exclusion ARginine A GF 17] | 126 | 119 | 118 | 126 | 116
23 | CGCCGCAAGGCGAGCGCUCCCACUCCGGAAGGAGCGCCCGAAAGGGCAGGUAGGUCGCCGGAGUGAUGUUCCGGUGGAGGGCUCG [#2 Exclusion - Arginine A Attempt #27 (Inspired by Omei)] | 379 | 185 | 432 | 360 | 529
24 | CGCCGGAAGGCGAGCGCUCCCACUCCGGAAGGAGCGCCCGAAAGGGCAGGUAGGUCGCCGGAGUGAUGUUCCGGUGGAGGGCUCG [#2 Exclusion - Arginine A Attempt #29 (Inspired by Omei)] | 125 | 119 | 121 | 371 | 187
25 | CGCGCGCGUUGAGAGGUGCGCGCGAAUGAUACCAGUAUAUAAGAAUACCCUUGGCAGCAUAAGAAAGAUAUAGUGAUGUUGUAUA [SSTheophA.F] | 346 | 130 | 250 | 308 | 228
26 | CGGAUGUAGUGAUGUUAUAUUAGAUGUAGACGAGGACCGGUACGGCCGCCACUCGAAACGGCUACUAGCGCGUUGCGAGGUGUGC [ExTryptoA.CJ] | 737 | 525 | 686 | 784 | 480
27 | CGUAAGGAUUGACGACUGCAGAGCAAAAUAAAGGAUAUCGCAGCGUCGAGAAGGUUAUCGUGCGCCAGUGAUGUUGGCGGUAGUC [theeternabot_sameState_KL_FMN_A_22] | 84.1 | 135 | 108 | 181 | 87
28 | CGUACGGUUUCUUUCUUUCCGUACGCGUGCCGAGGACCGGUACGGCCGCCACUCGCUACAGCCUAGUGAUGUUAGGCAAUUCUUU | 107 | 111 | 112 | 124 | 89.9
29 | CGUCACAAACCUAGUCAAGUGAUGUUUGGCCGAGGACCGGUACGGCCGCCACUCGCUCCUGUCACCCAUUCGUGUGUCGCGGACU [theeternabot_exclusion_KL_Trp_A_5] | 377 | 148 | 316 | 473 | 297
30 | CGUUUAUAGCAGGAUACCAGUACCCAUAAAGUACGUUAAUAGUAGAGUGAUGUUCUGAAGUACCCUUGGCAGCUUCCGGUAAGUG [#25 K4 Theophylline B Exclusion] | 163 | 342 | 239 | 298 | 134
31 | CUAACGGUACGAGUGAUGUUCAGCAAGGAUACCAGCGGACAGUCACGCCCUUGGCAGCCUAGUUUCUACCCGUCGGAAUUUCUUA [theeternabot_sameState_KL_Theo_A_2] | 623 | 366 | 599 | 461 | 527
32 | CUAAUCGCUCAUGAUACCAGCUAGUGAUGUUAGCCCGUCAAGCUGAGGGUUCAUCCACCCAGCCCUUGGCAGCAUUCUCGGUCAG [theeternabot_exclusion_KL_Theo_B_8] | 441 | 313 | 387 | 449 | 364
33 | CUAGCUAGCAUGGAAACAUGCUAGCUAGAUUAGGAUAUGACGUAAGUCAGAAGGGAUAAAUGGAGUGAUGUUCCGGACGCAAGUC [#2 Same State - FMN A Attempt #4 (HarryS)] | 255 | 237 | 247 | 295 | 186
34 | CUAUGGAAACAUAGGAAUCGGGAAACCGAUACCAGUAUGGAAACAUACCCUUGGCAGCGGAAUGAUUCAACGGAGUGAUGUUCCG [Theophylline A K4 20] | 395 | 327 | 399 | 293 | 321
35 | CUAUGGAAACAUAGGAGUCGGGAAACCGAUACCAGUAUGGAAACAUACCCUUGGCAGCGGAAUGAUUCAACGGAGUGAUGUUCCG [Theophylline A K4 19] | 458 | 366 | 400 | 322 | 366
36 | CUCAGAAAGACUGUCCAAGUGAUGUUUGGACGAGGACCGGUACGGCCGCCACUCGCUGUUGCGAAUGUUAAGGUACGAGUCGCGG [theeternabot_exclusion_KL_Trp_A_30] | 84.8 | 89.7 | 89.1 | 101 | 91.7
37 | CUCGAGUGAUGUUCGAUUAUUUAUACAGAUACCAGUGAAUUUUAACACCCUUGGCAGCUGGUAGUAUCUUUGUAAUUUUAACUAG [JR_ExcTheophyA_Sub003] | 133 | 181 | 147 | 176 | 111
38 | CUGACCAACAGCGAUACCAGCGUGGAGUGAUGUUCCCUGGUCCGGGCUGAUGUUCCCUUGCGCCCUUGGCAGCGCAGAAGCAGGA [Exclusion Theophylline B GF 12] | 296 | 263 | 351 | 303 | 281
39 | CUGAGCCUGACGCAAGUCAGGCUCUGCGAGCGAGGACCGGUACGGCCGCCACUCGGUGCAGUGAUGUUGCAUGGCCGCAAGGCCG [#2 Exclusion - Tryptophan A Attempt #21 (HarryS)] | 254 | 215 | 274 | 218 | 306
40 | CUUAAGGAGUGUCGUGCCGGACACUGGGAAGGAGCGCAAUUCUUUGCAGGUAGGUCGCCCAGUGAUGUUGGGUGGCGCUGUCGAA [Laatonbi] | 190 | 156 | 149 | 156 | 128
41 | CUUCGUAAGGGCCCAGUGAUGUUGGGCACUCGAGGACCGGUACGGCCGCCACUCGCUCCCUAAGUCGCGCGCGUGGGCCACCGCC [Rezariatra] | 128 | 111 | 116 | 102 | 139
42 | CUUGAUGGAAACAUCGAGUAGAUUACUGAUACCAGUAUCGAUAGAUACCCUUGGCAGCAGAAUCAGUAAUCACGAGUGAUGUUCG [Ex Theophylline A K4 7] | 535 | 528 | 555 | 518 | 485
